Laboratory results reported in patent publication US11242370B2, “Neuregulin-4 compounds and methods of use” (Eli Lilly and Company, priority 2019, dated 2022).
Residue numbers refer to the chain shown, from its start. Names may count otherwise. Marks after values point to notes of the source that are not given here.

Assays:
human HER2/HER4 = target: T1, human HER2/HER4 (Homo sapiens, UniProt Q15303); experiment: Human HER2/HER4 phospho-ERK 1/2 assay, purified proteins, CHO-K1 cells; type: cell-based
T1 construct: expressed in transfected cells
Protocol: (§1) A cell based assay utilizing CHO-K1 cells overexpressing human or rat HER receptors is used to determine activity of NRG4 compounds. CHO-K1 cells (ATCC) are grown in DMEM-F12 3:1 with 5% FBS with 20 mM HEPES, 40 μg/mL L-Proline, lx antibiotics and were split 1:5 every 2-3 days with TripLE Express (Gibco). Cells are transfected with plasmid DNA encoding HER receptors in pairs (hHER2-3, hHER2-4, rHER2-3 and rHER2-4) with Fugene 6 (Promega) according to the manufacturer's instructions. […] Transfected cells are selected with Puromycin (12 ug/ml) and Hygromycin (1 mg/ml) for 3-4 weeks and clonal lines are obtained by limited dilution cloning into 96 well plates. Clonal lines are selected by appropriate gene expression of HER2, HER3 or HER4 by Taqman method. Lines with appropriate receptor expression are confirmed by NRG1 induced phospho-ERK 1/2 responses. Clones are grown up, harvested, aliquoted into cryovials and then frozen under liquid nitrogen for long-term storage.
(§2) A phospho-ERK1/2 activity assay is utilized with CHO-K1 cells overexpressing human or rat HER receptors to determine potencies and selectivity of purified NRG4 compounds. CHO-K1 cell lines expressing the human or rat HER receptors are cultured with selection medium (DMEM-F12 3:1 with 5% FBS with 20 mM HEPES, 40 μg/mL L-Proline, 1× antibiotics, 12 μg/mL puromycin, 1 mg/mL Hygromycin B). On Day −1 (the day before phospho-ERK1/2 assay), cells are washed once with PBS, detached with enzyme free cell dissociation solution (GIBCO cat #13151-014), and resuspended in plating medium (DMEM-F12 3:1 with 20 mM HEPES, lx antibiotics, 0.2% FBS). Cells are plated in a 96-well Poly-D-Lysine coated plate (BD cat #354640) at 10,000 cells per 0.1 mL per well. Cells are cultured in a tissue culture incubator at 37° C. 5% CO2 overnight. On Day 1 (the day of pERK1/2 assay), plates are incubated at room temperature for 30 min. The culture media are removed followed by addition of 504, ligand at various concentrations diluted in PBS-20 mM HEPES-0.005% BSA. Native human NRG1 and NRG4 peptides are purchased from Reprokine (Tampa, Fla.). The stimulation time is 30 min (except for hHER2-4 1H6 line in which 15 min is used for stimulation). At the end of stimulation, ligands are removed and 704, Lysis buffer (made according to manufacturer's recipe, Perkin Elmer cat #ALSU-PERK-A10K) is added. Plates are incubated at room temperature for 10 min on plate shaker with 350 rpm agitation, then on ice for 1 hour without shaking. 304, of cell lysis is transferred to a 96-well white Optiplate (Perkin Elmer cat #6002290) for phospho-ERK1/2 assay. Briefly 7.5 μL acceptor beads are added to 30 μL lysis in Optiplate. The plate is covered with aluminum foil and incubated at room temperature for 1 hour on plate shaker with 350 rpm agitation. Then 7.5 μL donor beads are added and the plate is covered with aluminum foil and incubated at room temperature for 2 hours on plate shaker with 350 rpm agitation or at 4° C. for overnight (warm up plate at room temperature for 2 h before reading). Alpha signal data are obtained on an Envision instrument (Alpha Technology-compatible plate reader). Donor beads and acceptor beads are made according to assay protocol. The data shown are generated with either the AlphaScreen SureFire p-ERK1/2 (Thr202/Tyr204) assay kit (Cat #TGRES50k) or the AlphaLISA® SureFire® Ultra™ p-ERK 1/2 (Thr202/Tyr204) assay kit (Perkin Elmer cat #ALSU-PERK-A10K). The activity of the NRG1 peptide was similar in both types of assays. Raw data obtained from the Envision instrument is imported into GraphPad Prism software (version 7). The EC50 value is generated by a variable slope-four parameter dose response curve. The % of maximal NRG1 activity data are generated by expressing the average maximal raw data for the NRG4 compound over the average maximal raw data for the native human NRG1 per plate and multiplying by 100. Data are provided below in Tables 7-9. N values reflect number of independent assays run. […]

rat HER2/HER4 = target: T2, rat HER2/HER4 (Rattus norvegicus, UniProt Q62956); experiment: Rat HER2/HER4 phospho-ERK 1/2 assay, purified proteins, CHO-K1 cells; type: cell-based
T2 construct: expressed in transfected cells
T2 sequence (Q62956 26-1308): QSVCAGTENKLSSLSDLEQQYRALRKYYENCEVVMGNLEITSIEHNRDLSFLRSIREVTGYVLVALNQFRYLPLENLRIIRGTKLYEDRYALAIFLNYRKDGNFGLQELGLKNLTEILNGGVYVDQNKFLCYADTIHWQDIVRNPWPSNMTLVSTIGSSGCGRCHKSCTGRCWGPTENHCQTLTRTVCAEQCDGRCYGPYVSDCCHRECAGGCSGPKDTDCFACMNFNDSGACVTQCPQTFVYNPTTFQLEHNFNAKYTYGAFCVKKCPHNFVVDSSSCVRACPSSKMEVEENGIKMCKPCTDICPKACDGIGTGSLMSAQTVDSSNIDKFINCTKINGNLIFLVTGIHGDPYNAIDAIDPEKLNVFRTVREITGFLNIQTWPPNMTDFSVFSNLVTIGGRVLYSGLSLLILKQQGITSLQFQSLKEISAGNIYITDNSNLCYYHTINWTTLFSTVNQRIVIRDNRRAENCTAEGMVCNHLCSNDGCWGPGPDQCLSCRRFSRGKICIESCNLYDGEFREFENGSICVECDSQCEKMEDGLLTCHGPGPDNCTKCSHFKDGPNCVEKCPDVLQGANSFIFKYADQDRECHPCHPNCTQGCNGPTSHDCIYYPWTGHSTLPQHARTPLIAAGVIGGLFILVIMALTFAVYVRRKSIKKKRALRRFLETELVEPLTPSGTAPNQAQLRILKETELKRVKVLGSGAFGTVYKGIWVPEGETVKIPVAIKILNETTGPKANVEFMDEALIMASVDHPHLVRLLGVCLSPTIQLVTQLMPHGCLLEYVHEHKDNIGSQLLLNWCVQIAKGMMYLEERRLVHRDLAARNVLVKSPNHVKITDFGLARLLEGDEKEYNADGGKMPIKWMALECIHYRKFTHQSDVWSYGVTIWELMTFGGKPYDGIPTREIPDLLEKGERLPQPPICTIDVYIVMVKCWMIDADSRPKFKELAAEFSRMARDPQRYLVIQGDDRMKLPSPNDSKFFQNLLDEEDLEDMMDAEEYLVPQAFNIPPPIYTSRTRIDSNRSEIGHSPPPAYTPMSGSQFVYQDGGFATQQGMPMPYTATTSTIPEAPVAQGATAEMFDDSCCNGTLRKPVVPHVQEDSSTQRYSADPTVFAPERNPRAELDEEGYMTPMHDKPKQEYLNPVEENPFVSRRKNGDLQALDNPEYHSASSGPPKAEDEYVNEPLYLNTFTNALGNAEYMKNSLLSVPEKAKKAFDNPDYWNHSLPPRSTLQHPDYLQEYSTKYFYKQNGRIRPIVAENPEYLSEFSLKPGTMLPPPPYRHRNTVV
T2 sequence (P06494 23-1257 partner): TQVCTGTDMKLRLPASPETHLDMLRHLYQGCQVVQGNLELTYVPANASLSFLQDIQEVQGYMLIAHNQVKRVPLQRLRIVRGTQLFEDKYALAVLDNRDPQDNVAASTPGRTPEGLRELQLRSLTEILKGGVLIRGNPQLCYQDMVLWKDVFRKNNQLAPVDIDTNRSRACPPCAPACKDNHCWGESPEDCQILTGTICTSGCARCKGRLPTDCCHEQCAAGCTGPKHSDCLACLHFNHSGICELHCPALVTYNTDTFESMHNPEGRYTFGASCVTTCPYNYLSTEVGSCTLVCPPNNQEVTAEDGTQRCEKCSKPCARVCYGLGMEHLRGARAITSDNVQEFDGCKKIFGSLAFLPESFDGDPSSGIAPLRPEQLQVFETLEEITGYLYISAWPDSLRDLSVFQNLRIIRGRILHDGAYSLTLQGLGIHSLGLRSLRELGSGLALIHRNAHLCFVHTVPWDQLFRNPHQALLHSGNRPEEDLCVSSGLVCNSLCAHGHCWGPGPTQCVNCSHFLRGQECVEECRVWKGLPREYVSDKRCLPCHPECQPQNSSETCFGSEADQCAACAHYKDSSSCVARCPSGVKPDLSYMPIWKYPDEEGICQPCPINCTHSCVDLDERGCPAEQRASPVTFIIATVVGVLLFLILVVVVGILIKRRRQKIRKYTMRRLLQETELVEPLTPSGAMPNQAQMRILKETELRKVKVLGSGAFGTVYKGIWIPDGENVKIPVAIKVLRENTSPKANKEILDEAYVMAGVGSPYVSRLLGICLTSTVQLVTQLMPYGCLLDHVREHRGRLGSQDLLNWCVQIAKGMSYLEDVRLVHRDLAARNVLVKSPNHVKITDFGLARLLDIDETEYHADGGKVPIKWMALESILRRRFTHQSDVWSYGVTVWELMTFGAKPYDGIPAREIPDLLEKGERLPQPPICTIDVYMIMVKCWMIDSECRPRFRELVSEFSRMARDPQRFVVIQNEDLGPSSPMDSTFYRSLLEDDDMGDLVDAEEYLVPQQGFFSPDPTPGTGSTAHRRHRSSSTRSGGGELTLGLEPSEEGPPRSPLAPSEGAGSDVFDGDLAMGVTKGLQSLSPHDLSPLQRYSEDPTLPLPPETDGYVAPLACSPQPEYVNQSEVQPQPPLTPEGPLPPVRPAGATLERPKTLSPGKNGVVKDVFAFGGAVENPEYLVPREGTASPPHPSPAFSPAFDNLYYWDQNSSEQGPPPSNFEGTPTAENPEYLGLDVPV
Protocol: as §1, §2

human HER2/HER3 = target: T3, human HER2/HER3 (Homo sapiens, UniProt P21860); experiment: Human HER2/HER3 phospho-ERK 1/2 assay, purified proteins, CHO-K1 cells; type: cell-based; settings: purified proteins; phospho-ERK1/2
T3 construct: expressed in transfected cells
Protocol: as §1
as §2, with “assays.” for “assays. Raw data obtained from the Envision instrument is imported into GraphPad Prism software (version 7). The EC50 value is generated by a variable slope-four parameter dose response curve. The % of maximal NRG1 activity data are generated by expressing the average maximal raw data for the NRG4 compound over the average maximal raw data for the native human NRG1 per plate and multiplying by 100. Data are provided below in Tables 7-9. N values reflect number of independent assays run.”

rat HER2/HER3 = target: T4, rat HER2/HER3 (Rattus norvegicus, UniProt Q62799); experiment: Rat HER2/HER3 phospho-ERK 1/2 assay, purified proteins, CHO-K1 cells; type: cell-based; settings: phospho-ERK1/2
T4 construct: expressed in transfected cells
T4 sequence (Q62799 20-1339): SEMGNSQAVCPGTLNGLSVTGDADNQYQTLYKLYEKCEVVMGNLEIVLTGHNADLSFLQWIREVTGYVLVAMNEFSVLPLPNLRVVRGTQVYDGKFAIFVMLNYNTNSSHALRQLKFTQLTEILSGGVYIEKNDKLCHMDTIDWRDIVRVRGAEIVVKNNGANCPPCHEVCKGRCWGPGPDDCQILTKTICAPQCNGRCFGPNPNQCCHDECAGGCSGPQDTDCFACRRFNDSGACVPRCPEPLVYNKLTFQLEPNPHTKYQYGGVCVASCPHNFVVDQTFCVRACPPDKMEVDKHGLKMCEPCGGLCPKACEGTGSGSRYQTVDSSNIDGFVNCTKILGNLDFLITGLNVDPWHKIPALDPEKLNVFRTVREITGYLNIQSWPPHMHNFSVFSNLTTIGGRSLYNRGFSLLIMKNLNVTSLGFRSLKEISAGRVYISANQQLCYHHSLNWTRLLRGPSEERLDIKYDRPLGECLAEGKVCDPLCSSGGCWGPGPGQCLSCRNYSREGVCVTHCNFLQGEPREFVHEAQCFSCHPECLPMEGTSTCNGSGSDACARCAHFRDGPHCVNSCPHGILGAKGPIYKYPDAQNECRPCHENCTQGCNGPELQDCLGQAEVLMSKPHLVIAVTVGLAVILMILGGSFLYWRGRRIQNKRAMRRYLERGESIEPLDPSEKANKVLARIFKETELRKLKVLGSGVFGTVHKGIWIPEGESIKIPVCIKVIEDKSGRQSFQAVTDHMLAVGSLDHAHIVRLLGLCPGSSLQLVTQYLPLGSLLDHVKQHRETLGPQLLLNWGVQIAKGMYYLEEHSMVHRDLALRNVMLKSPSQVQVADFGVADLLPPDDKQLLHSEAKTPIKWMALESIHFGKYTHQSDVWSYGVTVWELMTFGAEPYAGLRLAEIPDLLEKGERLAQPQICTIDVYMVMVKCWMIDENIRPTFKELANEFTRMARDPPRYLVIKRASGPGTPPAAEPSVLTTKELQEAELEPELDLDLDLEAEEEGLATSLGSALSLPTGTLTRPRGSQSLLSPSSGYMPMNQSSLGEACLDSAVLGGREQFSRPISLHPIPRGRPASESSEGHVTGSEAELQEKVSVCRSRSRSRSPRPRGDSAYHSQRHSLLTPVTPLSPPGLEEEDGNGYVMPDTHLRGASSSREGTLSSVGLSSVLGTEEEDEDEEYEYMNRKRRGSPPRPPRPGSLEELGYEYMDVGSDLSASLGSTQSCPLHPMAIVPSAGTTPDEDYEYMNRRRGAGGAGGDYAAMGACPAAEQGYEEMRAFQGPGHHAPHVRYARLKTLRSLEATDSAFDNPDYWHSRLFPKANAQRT
T4 sequence (P06494 23-1257 partner): as the sequence (P06494 23-1257 partner) above
Protocol: as §1
A phospho-ERK1/2 activity assay is utilized with CHO-K1 cells overexpressing human or rat HER receptors to determine potencies and selectivity of purified NRG4 compounds. CHO-K1 cell lines expressing the human or rat HER receptors are cultured with selection medium (DMEM-F12 3:1 with 5% FBS with 20 mM HEPES, 40 μg/mL L-Proline, 1× antibiotics, 12 μg/mL puromycin, 1 mg/mL Hygromycin B). On Day −1 (the day before phospho-ERK1/2 assay), cells are washed once with PBS, detached with enzyme free cell dissociation solution (GIBCO cat #13151-014), and resuspended in plating medium (DMEM-F12 3:1 with 20 mM HEPES, lx antibiotics, 0.2% FBS). Cells are plated in a 96-well Poly-D-Lysine coated plate (BD cat #354640) at 10,000 cells per 0.1 mL per well. […] Then 7.5 μL donor beads are added and the plate is covered with aluminum foil and incubated at room temperature for 2 hours on plate shaker with 350 rpm agitation or at 4° C. for overnight (warm up plate at room temperature for 2 h before reading). Alpha signal data are obtained on an Envision instrument (Alpha Technology-compatible plate reader). […]

[1] = tested on: rat model of heart failure with reduced ejection fraction (HFrEF); experiment: Rat MI model, Example 11 dose-response, echocardiography; type: in vivo
Protocol: A nonclinical efficacy pharmacology study is conducted in a rat model of heart failure with reduced ejection fraction (HFrEF) to identify dose-response relationship for Example 11.
Briefly, the rats are anesthetized and positively ventilated throughout the procedure. […] The left coronary artery is permanently ligated. The sham-operated animals undergo the same procedure except the silk suture is placed around the left coronary artery without being tied. All rats are individually housed in a temperature and humidity controlled room and maintained on a 12 hour light/dark cycle. Three weeks after surgery, rats undergo transthoracic echocardiography for determination of ejection fraction (EF %) and left ventricle dimensions (LVD) using a Vevo 2100 ultrasound system. Rats are randomized across treatment groups according to EF % and LVD.
Measurements of EF % and LVD are expressed as mean values±standard error (SE). Statistical analysis is performed with JMP® 13 software (SAS Institute, Inc.; Cary, N.C.) and Dunnett's Test is used for statistical comparisons across treatment groups. Statistical significance is accepted at P<0.05.
Two to three weeks after MI surgery, animals are allocated to treatment groups and treated with a single injection of vehicle (DPBS) or one of the 3 dose levels (0.3, 1, 3 mg/kg) of Example 11.

cynomolgus monkeys = experiment: Toxicology study in cynomolgus monkeys, cardiac tissue inspection; settings: male and female monkeys, single 3 mg/kg SC bolus injection
Protocol: (§3) Example 11 is administered in a single 3 mg/kg dose to male and female monkeys by SC bolus injection.

[2] = Plasma pharmacokinetics in rats (toxicology studies); settings: rat, in vivo, sc, 30 mg/kg
Protocol: as §3

[3] = Plasma pharmacokinetics in monkeys (toxicology studies); settings: cynomolgus monkey, in vivo, sc, 3 mg/kg
Protocol: as §3

rats = experiment: Toxicology study in rats, cardiac tissue inspection; settings: single SC injection of 30 mg/kg
[4] = maximal signal relative to native human NRG1 per plate
[5] = purified proteins, phospho-ERK1/2

B1: Example 11: NRG4 D1G/V22Q/E44K, (GGGGS)3 linker, SEQ ID NO: 19, fused to IgG Fc dimer SEQ ID NO: 8 and 9 (protein)
chain 1: GGGGSGGGGSGGGGSGHEEPCGPSHKSFCLNGGLCYQIPTIPSPFCRCVENYTGARCEKVFL
chain 2: ECPPCPAPPVAGPSVFLFPPKPKDTLMASRTPEVTCVVVDVSHEDPEVQFNWYVDGVEVHNAKTKPREEQFNSTFRVVSVLTVVHQDWLNGKEYKCKVSNKGLPAPIEKTISKTKGQPREPQVYTLPPSREEMTKNQVSLWCLVKGFYPSDIAVEWESNGQPENNYKTTPPVLDSDGSFFLYSKLTVDKSRWQQGNVFSCSVMHEALHNAYTQKSLSLSPG
chain 3: B1 chain 2 with W141S, L143A, Y182V
% Maximal NRG1 activity (human HER2/HER4; [4]): 79 ± 2 (N = 5) % | EC50 (human HER2/HER4; [5]): 0.55 ± 0.11 nM | % Maximal NRG1 activity (rat HER2/HER4; [4]): 96 ± 2 (N = 2) % | EC50 (rat HER2/HER4; [5]): 0.17 ± 0.06 nM | EC50 (human HER2/HER3): > 1000 nM | EC50 (rat HER2/HER3): > 1000 nM | Ejection Fraction ([1]; 0.3 mg/kg single injection, 7 days after dosing): 50.1* % | Ejection Fraction ([1]; 0.3 mg/kg single injection, 14 days after dosing): 42.6% | Ejection Fraction ([1]; 0.3 mg/kg single injection, 21 days after dosing): 36.4% | Ejection Fraction ([1]; 0.3 mg/kg single injection, Baseline (before dosing)): 45.4% | Ejection Fraction ([1]; 1 mg/kg single injection, 7 days after dosing): 52.4* % | Ejection Fraction ([1]; 1 mg/kg single injection, 14 days after dosing): 42.2% | Ejection Fraction ([1]; 1 mg/kg single injection, 21 days after dosing): 39.7% | Ejection Fraction ([1]; 1 mg/kg single injection, Baseline (before dosing)): 46.6% | Ejection Fraction ([1]; 3 mg/kg single injection, 7 days after dosing): 54.7* % | Ejection Fraction ([1]; 3 mg/kg single injection, 14 days after dosing): 54.0* % | Ejection Fraction ([1]; 3 mg/kg single injection, 21 days after dosing): 39.6% | Ejection Fraction ([1]; 3 mg/kg single injection, Baseline (before dosing)): 45.8% | LVD dilation ([1]; 0.3, 1, 3 mg/kg single injection vs vehicle, course of the study (data not shown)): No differences in LVD dilation are observed across groups | inspections of tissue (cardiac toxicity) (cynomolgus monkeys): cardiac degeneration and necrosis | plasma concentration [2]: undetectable at 96 hours | time for detectable plasma concentrations to be cleared [3]: > 168 h | inspections of tissue (cardiac toxicity) (rats): no evidence of cardiac degeneration and/or necroses
